According to patent US20140072553A1 (MORPHOTEK, published 2014):

B1: human anti-SEB monoclonal antibody 79G9 (antibody, V domains shown)
VH: EVQLEESGAGLLKPSETLSLTCAVYGGSFSGYYWSWIRQAPGKGLEWIGEIDHSGTTNYNPSLKSRVTISVETSKNQFSLRLSSVTAADSAVYYCASSGYCSHGLCPQEDWGQGTLVTVSS
VL: DIELTQSPSFLSASVGDRVAITCRASQGISNYLAWYQQKPGKAPKLLIYAAFVLQSGVPSRFSGSGSGTEFTLTISNLQPEDFATYYCQQLNSYPRAFGPGTKVDIKR
B2: human anti-SEB monoclonal antibody 100C9 (antibody, V domains shown)
VH: EVQLVESGGGLVQPGGSLRLSCSASGFTFSSYWMSWVRQAPGKGLEWVANIIQDGSEKYYADSVKGRLTISRDNAKNSLYLQMNSLRVDDTAVYYCARGYEGCSATRCYLYYFDYWGPGTLVTVSS
VL: SYVLTQPPSVSVSPGQTARITCSGDALPKQYTYWYQQKPGQAPVVVIYKDSERPSGIPERFSGSSSGTTVTVTISGVQAEDEADYYCQSADSSGTSLVFGGGTKLTVLG
B3: human anti-SEB monoclonal antibody F10 (antibody, V domains shown)
VH: QVQLVQSGGGLVKPGGSLRLSCAASGFTFSSYSMNWVRQAPGKGLEWVSSISSSSSYIYYADSVKGRFTISRDNAKNSLYLQMNSLRAEDTAVYYCARGGVAGRTEIYYYYYGMDVWGQGTTVTVSS
VL: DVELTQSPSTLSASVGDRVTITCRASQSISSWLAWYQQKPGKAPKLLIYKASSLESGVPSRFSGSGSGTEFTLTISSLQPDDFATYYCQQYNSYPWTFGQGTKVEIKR

These binders were tested against tetanus toxoid (UniProt P04958 2-1315) (assay: hybridoma screening ELISA).
Chain of tetanus toxoid (P04958 2-457 limits assumed, chain 1 of 2): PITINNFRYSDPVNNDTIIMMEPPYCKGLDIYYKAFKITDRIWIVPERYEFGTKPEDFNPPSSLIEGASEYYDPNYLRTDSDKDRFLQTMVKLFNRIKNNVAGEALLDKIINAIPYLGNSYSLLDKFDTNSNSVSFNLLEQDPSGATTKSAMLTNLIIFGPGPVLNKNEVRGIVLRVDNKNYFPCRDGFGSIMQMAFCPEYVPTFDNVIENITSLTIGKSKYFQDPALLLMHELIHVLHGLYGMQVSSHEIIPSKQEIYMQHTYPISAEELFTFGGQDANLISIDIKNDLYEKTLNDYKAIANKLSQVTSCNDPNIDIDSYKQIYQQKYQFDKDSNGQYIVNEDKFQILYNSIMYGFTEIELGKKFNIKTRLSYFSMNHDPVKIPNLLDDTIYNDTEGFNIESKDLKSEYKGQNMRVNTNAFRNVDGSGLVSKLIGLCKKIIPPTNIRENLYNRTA
Chain of tetanus toxoid (P04958 458-1315 limits assumed, chain 2 of 2): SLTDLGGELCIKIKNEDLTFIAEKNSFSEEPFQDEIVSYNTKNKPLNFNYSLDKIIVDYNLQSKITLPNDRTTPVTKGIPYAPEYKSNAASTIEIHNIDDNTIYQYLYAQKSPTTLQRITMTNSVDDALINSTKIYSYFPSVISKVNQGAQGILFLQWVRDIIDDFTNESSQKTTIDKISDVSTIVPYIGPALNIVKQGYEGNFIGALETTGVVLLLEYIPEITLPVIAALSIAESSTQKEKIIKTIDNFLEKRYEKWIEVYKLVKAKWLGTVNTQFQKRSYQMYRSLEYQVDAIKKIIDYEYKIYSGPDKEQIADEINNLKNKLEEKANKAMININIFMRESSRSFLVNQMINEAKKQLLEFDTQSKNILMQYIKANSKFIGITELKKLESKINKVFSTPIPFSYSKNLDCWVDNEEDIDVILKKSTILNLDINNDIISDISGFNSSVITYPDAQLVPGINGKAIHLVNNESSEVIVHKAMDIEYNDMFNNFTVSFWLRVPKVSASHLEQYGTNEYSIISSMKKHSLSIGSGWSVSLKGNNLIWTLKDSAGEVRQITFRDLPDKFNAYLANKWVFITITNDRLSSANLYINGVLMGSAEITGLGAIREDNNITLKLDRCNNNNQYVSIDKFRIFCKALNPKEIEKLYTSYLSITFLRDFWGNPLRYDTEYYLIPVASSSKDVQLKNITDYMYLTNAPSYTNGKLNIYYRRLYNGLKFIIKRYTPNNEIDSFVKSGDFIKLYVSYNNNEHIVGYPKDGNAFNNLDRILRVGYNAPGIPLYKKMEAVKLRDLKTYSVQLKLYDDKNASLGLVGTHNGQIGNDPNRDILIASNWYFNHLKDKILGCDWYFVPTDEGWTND

Q: Does B1 bind?
A: no binding

Q: Does B2 bind?
A: no binding

Q: Does B3 bind?
A: no binding
